Assays:
[1] = molecular target: T1, MBP-CHC(1–1074)-His6 C+ mutant (UniProt Q00610 1-1074, T87A | Q89A | K96E | K98E); assay: pull-down
T1 sequence (looked up): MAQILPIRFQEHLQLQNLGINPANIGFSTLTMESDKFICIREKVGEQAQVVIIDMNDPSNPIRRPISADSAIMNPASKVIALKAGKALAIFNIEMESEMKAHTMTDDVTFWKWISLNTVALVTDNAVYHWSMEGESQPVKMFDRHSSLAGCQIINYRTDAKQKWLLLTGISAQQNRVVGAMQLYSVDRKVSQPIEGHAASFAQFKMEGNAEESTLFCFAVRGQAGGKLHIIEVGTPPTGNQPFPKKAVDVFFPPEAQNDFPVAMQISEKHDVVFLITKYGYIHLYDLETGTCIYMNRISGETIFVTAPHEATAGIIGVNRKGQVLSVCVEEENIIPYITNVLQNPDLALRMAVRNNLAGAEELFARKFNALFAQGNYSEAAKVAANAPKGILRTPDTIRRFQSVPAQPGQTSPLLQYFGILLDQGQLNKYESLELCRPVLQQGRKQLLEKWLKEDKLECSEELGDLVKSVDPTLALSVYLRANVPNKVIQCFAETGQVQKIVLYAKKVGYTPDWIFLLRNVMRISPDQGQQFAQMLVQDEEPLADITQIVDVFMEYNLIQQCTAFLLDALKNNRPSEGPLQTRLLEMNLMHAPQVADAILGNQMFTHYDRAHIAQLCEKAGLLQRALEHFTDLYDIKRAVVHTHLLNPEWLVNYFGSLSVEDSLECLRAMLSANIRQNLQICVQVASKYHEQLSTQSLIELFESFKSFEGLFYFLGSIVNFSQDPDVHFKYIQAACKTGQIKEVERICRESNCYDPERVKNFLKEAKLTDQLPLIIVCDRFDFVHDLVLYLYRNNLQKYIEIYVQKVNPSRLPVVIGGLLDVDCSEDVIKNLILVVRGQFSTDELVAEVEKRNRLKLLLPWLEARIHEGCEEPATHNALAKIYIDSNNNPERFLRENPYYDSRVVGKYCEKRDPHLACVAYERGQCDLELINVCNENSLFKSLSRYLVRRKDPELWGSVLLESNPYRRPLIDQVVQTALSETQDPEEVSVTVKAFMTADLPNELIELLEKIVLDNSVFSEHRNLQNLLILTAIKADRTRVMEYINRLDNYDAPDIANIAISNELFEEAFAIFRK

[2] = molecular target: T2, MBP-CHC(1–1074)-His6 (UniProt Q00610 1-1074); assay: pull-down
T2 sequence (looked up): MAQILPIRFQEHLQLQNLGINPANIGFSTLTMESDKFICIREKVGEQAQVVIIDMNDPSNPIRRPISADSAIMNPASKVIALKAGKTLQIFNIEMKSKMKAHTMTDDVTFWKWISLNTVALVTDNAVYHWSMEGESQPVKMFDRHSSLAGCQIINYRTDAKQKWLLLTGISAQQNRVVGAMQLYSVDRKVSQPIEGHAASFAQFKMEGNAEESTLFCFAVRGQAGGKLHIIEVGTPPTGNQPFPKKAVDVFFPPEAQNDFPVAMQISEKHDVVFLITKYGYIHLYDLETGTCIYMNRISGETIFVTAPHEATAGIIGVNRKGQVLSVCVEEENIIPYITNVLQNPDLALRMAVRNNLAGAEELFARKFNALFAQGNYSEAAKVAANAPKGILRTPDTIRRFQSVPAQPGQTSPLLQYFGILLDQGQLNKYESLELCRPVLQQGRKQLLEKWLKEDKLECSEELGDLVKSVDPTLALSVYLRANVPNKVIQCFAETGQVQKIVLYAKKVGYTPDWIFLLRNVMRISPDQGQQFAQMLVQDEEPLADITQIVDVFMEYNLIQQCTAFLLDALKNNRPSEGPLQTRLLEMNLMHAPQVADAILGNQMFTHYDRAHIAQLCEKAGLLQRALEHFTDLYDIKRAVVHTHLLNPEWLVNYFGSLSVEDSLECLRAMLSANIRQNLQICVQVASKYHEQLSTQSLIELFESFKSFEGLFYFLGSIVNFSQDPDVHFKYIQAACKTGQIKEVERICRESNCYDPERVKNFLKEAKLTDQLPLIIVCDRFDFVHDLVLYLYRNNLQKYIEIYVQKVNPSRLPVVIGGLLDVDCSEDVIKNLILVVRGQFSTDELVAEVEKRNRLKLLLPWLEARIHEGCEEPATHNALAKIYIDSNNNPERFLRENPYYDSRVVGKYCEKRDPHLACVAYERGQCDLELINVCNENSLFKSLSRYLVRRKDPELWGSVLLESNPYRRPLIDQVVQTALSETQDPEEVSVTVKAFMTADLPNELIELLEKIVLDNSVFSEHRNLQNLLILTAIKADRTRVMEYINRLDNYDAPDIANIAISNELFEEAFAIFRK

- binding result [1]: binds
- binding result [2]: binds
B1: GST-TACC3-His6, phosphorylated with Aurora A/TPX2 (natural protein)
chain: not shown
modifications: phosphorylated in vitro with Aurora A/TPX2 (phosphoserine at 558, pS558)
